In the supplement of paper PMC11502859:

These substances were tested on HEK293T (assay: median enrichment of reporter reads in eGFP-reduced (low/intermediate) vs eGFP-high sorted cells (eGFP-extension fusion abundance) (ratio); higher = stronger loss of eGFP-fusion protein abundance (more destabilising extension)).
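Further: lentiviral eGFP-IRES-mCherry reporter pool sorted by FACS 96 h post-transduction, gated on mCherry-high cells, Illumina read counts normalized per million, median across four biological replicates.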

Substance | median enrichment
WPPGTSLALLTHPRNTISGTRAAPRTRGYSRHNLIERAPAALTSTAFDTYASLVLLLSSESSCAHAFSRMGSPLAVAASVLAL [KIAA1522] | 8.47
QCGSCDRGSSSAEPQTVLPCSMCLKAQGDIPLGWPLPPP [DIAPH1] | 1.17
SVDTPAPVGMDGPDFMASGTWAQRGACGRGWENKVQGRDQTAASLYMPS [ITIH3] | 32.4
LGGVWGHPS [ZG16B] | 2.14
LSFRQFSSNGPFQGRPLPLRKSCDCILSDGNISMALLGYSA [HIST1H4B] | 5.72
LGPVAGRPAPAPPPPTGVPAHSCGKGGEGRRARPEQGAGGRAQYLTRAAVLINVPMAGPRSEPASSATVTFSLRDGGGGSLSR [DUSP9] | 2.08
REDAFLFMGFLPWSLSSKCHSGQSFVSVS [NOD1] | 33.9
GRRWCFRTLSHSLPSSALCHSQPFQQPRQPLLRPFPQPDTHSH [AMOTL2] | 12.3
SVS [PACSIN3] | 0.33
GAAPQAGVEPDLGTKD [ZNF688] | 0.378
LLQGSKLQR [OR7A5] | 10.4
LNFHTEF [TP53BP2] | 0.758
GNHGARAARCVQRRAHRHHPHPDQPAYRGARAPLPEAAQGHQR [UCKL1] | 0.821
RLHTCMLSPRGNGLYIAHFTLFRRHFIPALVLLEGLSRQSSSCSASVCDSPPSTPMALSLGDSSSPRKEGGVAEDLQPWPRGA [PRKAB1] | 7.16
ECPLFLFLLSPFSSLRSIGPLLSIFITRCFPLKHAHATVTKTNNYHFPNFIQNHFSVFLFPTPPTTFNDEIP [PHYHIPL] | 15.5
YRMETQKT [USH2A] | 0.809
RLPAAQKNFALSFPVLFHTQKDPRKPVFNM [NR3C2] | 3.55
SEEPQDHTHSPYPPQDYRTFWHTLYRVLGFTPQNDPTMSTHHQNPANGPPLPPSPDAEMVMGSWRVGSEMKGTPQWAAGPIFP [SLC13A5] | 3.6
LLEWIYDVPLRRSISATILI [HMGCLL1] | 20.6
RGKTTGRPESGPARCSGEFLISSHWGN [BPIFB2] | 0.953
WGFRSAT [KIF15] | 1.06
LMGCSLLLSFLGLLCFAVLENHKERNSYGEVRKTEKDSCVKLFFACKLLHFKRPPLFLQRTFFAQLWTLSMVP [DLX5] | 11.5
RLAACLRNPAFFRR [MAPK10] | 12.2
YHRPVPGATWGPCGGKPFPPPRGDAQPPSGPPFGHHQVPKVPQEASTLHARPASISLSFPVWPSFEGHVRWRSQARQTLTRGL [PLPP7] | 8.18

Substance | median enrichment
CCQDSCALRCK [MT1X] | 0.374
QCYLVSF [TRMT10A] | 4.82
RNKKFWVLSS [RGCC] | 1.68
YLLKYRNLNNVKLD [TJP1] | 4.45
WRPPHFRFGFRKTFSEKKLFF [TFDP1] | 5.19
LPAAPGTRGYTPVSLRE [KRTAP12-3] | 0.986
LPSASGSVVGQALIPALWGGSLYSLFGGMVTEFIVEPFSVQMLWLQIRNPTSPG [GOLGA3] | 4.27
GEKSYKCKECGKPLDDPQTLMNMRKFIL [ZNF141] | 6.09
SMFESHASLWKQYAM [STAT5A] | 0.883
WSSSSSFIGLSGC [EDARADD] | 1.2
QTGFLSSLKRLLCLRKSICCVSLASGSRTDLQLPNWILLPRSCSEVSFYHSAL [HLA-DPB1] | 7.45
SKTNTFYLWEAVPRFQPEL [ZBTB21] | 11.3
SVAGGVTARSPDFTSFGPVLL [UTP14A] | 0.633
YKHESFIHTFRQAREVQQVTAKGGNCSHLPPILPAENPDCIQCPQCSHHFAPKVAEQHIPKCKTIKNCLPPLRKHYS [ZC2HC1C] | 0.72
SAPCSTPSPPHPPWAGS [MOSPD3] | 4.09
YGEKIRNGCCT [WDR64] | 0.76
SVHQLPAPALAPTPSSLKHPPAHCGQLCATRAHGAPPVL [BAIAP3] | 1.3
SML [CTHRC1] | 3.13
YGRWEVSSLSLACSSSWT [REG3G] | 6.24
GYSHPGTEKAADGDCLPQPQQHLGLQLLESYHPRRQAQPGRGEEWAVKMKPHAQSPPIPHAAPPQSQATSCLLLVGGGLLSPS [LGALS9] | 3.94
KECSKCGGKS [ZNF671] | 0.995
RTSARPARPFPTST [ISLR2] | 0.582
YGLAKAPIEALCQ [PITHD1] | 1.66
TMNNEEDLLRSL [Degron FEM1C] | 0.347

Substance | median enrichment
VVVV [Val04] | 1.54
WCLGSTCLLSPQGLSLASLQWGCCVSVHLRLLCLCLLHHAGVWEEWTDRG [TCL1A] | 4.56
QTGHPTHLHAKILPASSLRVPW [UBL4B] | 4.81
EMCNLISLFHHNHDRW [C9orf72] | 9.03
WAPLPPTPYQLQSGGFHAQMALGVTSSFACGP [TPGS2] | 10.1
DPTPLWGSGTLHCTGSLHTGRGTCAPTSETCRSPQLTCPTGAQHCTQLVGRTRACLRELPAGVMQGGGEVQGRGAGLSCHQHF [MAP3K11] | 2.41
SFFSLSRFLAALVLL [LONRF2] | 8.16
SEMPAALPCQR [CUEDC1] | 1.21
AAA [Ala03] | 0.262
WMQLVCHSI [SERPINB4] | 10.7
QPWQ [ADGRL3] | 0.354
LKG [SSBP1] | 0.599
KKKEKKAKKKK [IQCA1] | 0.903
WFFCFNKQQ [TMEM31] | 6.9
SLLLVPK [RBKS] | 1.87
WPFSWATLQSLPPFGR [ZNRD1] | 6.12
YRSAVQENVMLGTPSSVVLASHASAAELAE [DEFA4] | 2.45
WRPGRRGPSSGG [Degron KLHDC2] | 10.7
LAAGVAMMGWSSLGQGVLGPTPTPPPRHHFPSRFLRLDLGSPLPVMHSCPGPTSPSLTSLELWPPRKGPIQPRLFTEVVLFMK [SCN1B] | 4.89
WGRRCGAVNFRPQRSQSMRGGGGGRGRRAKGGGAGASNPRQ [KISS1] | 15.8
WSICLLNDTSLIYCTIS [RTCA] | 12.5
QEHPHDIAFGGAPVACRIACGLCNLLRFKTDGHMCQWGSLSPGPKKQGTKFKTLASSQPLKPWPPEFPFLSLSFYFFYFYFYF [JAK3] | 7.54
QHGETPSLLKIQKKLARHGGGRL [FBLIM1] | 0.0978
QHWGRLPHPASGKPVAGHRVVPPVPS [SCLY] | 11

Substance | median enrichment
YELEQLGNKLSTSRHLLSFAMCLMP [OR51A7] | 3.52
LNRKKSPK [MDN1] | 0.34
CGSLRTTASLLLTSVATEAERQSDTSTGAPGEMGPA [PEX26] | 0.412
SEPQLTKSACPRTAPALELGARAAELVFGPQRRIQNQKLKSDVRWAPAPSAESRQGEAGWSQAPSHAAPKSWTHLWGAPHLHL [MYO9B] | 7.17
NNN [Asn03] | 0.227
WGMFVPGKAGGEPLQHLYIQEACREELVCWPQEEWELQTRSSDSLWPESNLVSPPASLF [FGF1] | 7.24
RSHTACSFGCD [EIF2B5] | 0.722
WAGLRGMVRTSPP [NANS] | 6.83
WARRASQRSGQAVRPWPSVC [INMT] | 9.99
EEEE [Glu04] | 8.36
YTSRTAT [NCOA6] | 0.753
STL [PGRMC2] | 0.374
GHPTPVPWRGSGPTLHNCLSRTVQTKGPAWKE [SLC37A1] | 2.83
SKQVTDLF [FOXN3] | 0.53
CPSGPPLPLGQGNQLLRDFSCLEGAVIAPPHCPTVLLGL [FBXW4] | 12.6
QATPAWPRSQDTGQGRPGPEELGAGPQT [APBA2] | 0.312
LLTLS [BBS5] | 10.2
KQGRWERDCLLPLLSSSCLEVEAV [GRM6] | 6.27
YYYYYY [Tyr06] | 2.81
YFFHKIC [CCDC102B] | 10.6
RSSPTKGPPETPGTISVSSHQTLALFLLLFGDLHCQNYQFQVNFVGEFPPPPSSGSPRSNVPPATFPLWPPAELICLSHRSWC [S100A7A] | 7.95
LKTPHPSLLECVWPFSSFSWQHQLGCFLCVWPQVSK [DUSP6] | 6.83
GGGGGGG [Gly07] | 2.97
ELLGQRLKPQDPCCPSRSFFLESQGKPFRAAPPSGQKLK [ALG1] | 3.82

Substance | median enrichment
CAGAFVAISL [MSI2] | 8.28
KFVISFICIYVVN [HEATR5B] | 13.7
QNILCTALVISDLD [MALSU1] | 7.03
NNNNNNN [Asn07] | 0.297
GAPPPGWTGAWLPSSFLPWLPEETPLTQPAWALTTNTLGHGQPAQDRLPALGHCAPISVLGLGSS [TTYH1] | 15.2
YCPRAHRQLQGALVANKQHL [RAB3C] | 2.13
RCPGDVTDSWQSHGPRLPKSVCWQLFP [S100P] | 8.26
QLICYVNLSFAFLFD [DGKB] | 13.9
GSRGRGGESPPRPPLPSPPGSRGSGLGRLPIPLLQAALIPHRN [FBXO46] | 5.21
CRDLAERWRSHQGPRDNYQEQKPLPVPH [IGSF22] | 3.87
QPGT [ZNF445] | 1.04
SSCCHQLALWPRARCLPFMFPHLQSELVVPDDLRSHDLLTCPMILYFVGRSIKQLLLLLCANHSCNFCSAYLPLFEKHAKGSF [ADAMTSL1] | 4.11
YRQK [CCR2] | 0.225
LNCSQLEML [DNAJC24] | 0.695
SQREENILVLFFFQKKRKIKEIYPLLPLHLSQ [SLITRK3] | 40.1
RSGLFQ [IQCF1] | 0.394
WTYVLC [OR2L5] | 7.99
EEE [Glu03] | 9.28
WSGKLGAFGLKGRMFPVFLDNKLGK [PKHD1] | 11.8
SEERMYVCFTHRHQESSPMRFFFGGGRVYTAREQKYCVS [B4GALT5] | 9.99
YKPRDGGCLAMAGR [DMRTC2] | 0.676
QDFMHSSERVTVTTVLSPISHKLLFVSKRMLLLLHCFPFAGTCWCLLLNWPALLAVWHCSLGRLLCSLYLHYRLVNLPTSSL [DCUN1D4] | 6.12
WVGGISETGKVAALSHFFWNSWWSPGLGHCLSPACFFVRSGIISKCS [SLC35E2A] | 40.8
CESVHQTKCGKNTKKT [GYPA] | 0.413
